Test results: US20030153066A1 (University of California, published 2003)

Molecular target: HIV-1 Gag Pr55 (wild-type) (HIV-1, UniProt P03348 1-512, N-terminal myristoylation (reactions with MCoA))
Test: cell-based or functional assay

B1: WGHP68-Tr1 (other)
chain: MADRLTRIAIVSEDKCKPKKCRQECKKSCPVVKTGKLCIEVSPVAKLAFISEELCIGCGICVKKCPFDAIEIINLPKDLEKDTTHRYGPNTFKLHRLPVPRPGQVLGLVGTNGIGKSTALKVLAGKLKPNLGRFKNPPDWQEILTYFRGSELQNYFTRILEDNLKAIIKPQYVDHIPKAVQGNVGQVLEQKDERDMKNELCVDLELNQVIDRNVGDLSGGELQRFAIAVVAVQSAEIYMFDEPSSYLDVKQRLKAARVIRSLLRSNSYVIVVEHDLSVLDYLSDFICCLYGKPGAYGVVTLPFSVREGINIFLAGFVPTENLRFRDESLTFKIAETQESAEEVATYQRYKYPTMSKTQGNFKLSVVEGEFTDSQIVVM
- amount of HIV-1 Gag protein in the medium of co-transfected Cos-1 cells (virion production): 4.7 fold
